Data reported in patent US12612465B2, “Formulations comprising PCSK9 specific monoclonal antibodies” (Amgen Inc., priority 2012, dated 2026).

How the values were obtained:
[1] = Viscosity measurement of 11F1 formulations; format: physicochemical; settings: 10 mM sodium acetate
Experimental: Concentration determination was then carried out by measuring absorbance at A280 using an Agilent 8453 Spectrophotometer (Santa Clara, Calif.). Protein concentration was calculated using the appropriate extinction coefficient. The appropriate amount of buffer was then added to the sample to dilute it back down to the desired concentration and another A280 was performed to obtain the final concentration for the experiment. Excipients were added individually to the 11F1 formulations samples derived from the high concentration stock solutions.
Viscosity was measured using Brookfield LV-DVII cone and plate viscometer (Middleboro, Mass.) with a CPE-40 spindle with matching sample cup temperature regulated by a circulating water bath at constant 25° C. 500 μL of sample was added to sample cup with positive displacement pipettor. […] At this point the rotational speed was stopped and a viscosity reading was generated by Rheocalc software.
High concentration protein formulations were sometimes measured using a different type of viscometer, an Anton Paar Physica Model MCR300 with a CP50-1 spindle. A 600 uL sample is used in this instrument and Rheoplus software version 3.4 was use to calculate solution viscosity. There was not a large difference in measurements using either viscometer.

[2] = target: T1, PCSK1 (Homo sapiens, UniProt P29120); assay: 11F1 binding specificity competition assay; settings: 0.4 μg/mL 11F1, 0 to 20 μg/mL competitor
T1 construct: purchased R&D Systems
T1 sequence (P29120 111-753): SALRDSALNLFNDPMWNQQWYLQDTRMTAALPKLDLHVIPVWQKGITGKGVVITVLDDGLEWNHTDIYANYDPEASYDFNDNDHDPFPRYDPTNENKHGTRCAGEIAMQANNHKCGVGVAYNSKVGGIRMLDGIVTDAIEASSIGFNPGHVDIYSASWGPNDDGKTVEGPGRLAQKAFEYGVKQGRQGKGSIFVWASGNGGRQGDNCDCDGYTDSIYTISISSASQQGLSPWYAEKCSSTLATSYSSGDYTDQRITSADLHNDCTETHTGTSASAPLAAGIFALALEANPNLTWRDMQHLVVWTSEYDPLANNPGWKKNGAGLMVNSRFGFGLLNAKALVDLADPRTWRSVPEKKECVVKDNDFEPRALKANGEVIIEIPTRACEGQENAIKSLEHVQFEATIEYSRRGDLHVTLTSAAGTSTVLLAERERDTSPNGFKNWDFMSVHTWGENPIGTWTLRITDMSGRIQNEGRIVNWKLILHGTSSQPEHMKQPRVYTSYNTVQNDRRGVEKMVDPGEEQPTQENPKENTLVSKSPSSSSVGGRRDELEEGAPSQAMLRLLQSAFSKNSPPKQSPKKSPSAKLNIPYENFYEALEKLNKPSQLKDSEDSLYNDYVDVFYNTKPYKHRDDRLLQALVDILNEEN
Experimental: (§1) Biotinylated PCSK9, diluted in buffer A (25 mM Tris, 150 mM NaCl, 0.1% BSA, 0.05% tween, pH 7.5) was bound to neutravidin coated 96 well plates at a concentration of 0.2 μg/mL, for one hour incubation at room temperature. Separately, 0.4 μg/mL of 11F1 was incubated for one hour at room temperature with various concentrations (ranging from 0 to 20 μg/mL) of either PCSK1, PCSK2, PCSK7, PCSK9 or furin (R&D Systems, Minneapolis, Minn.) (diluted in buffer A w/o tween). Furin inhibitor, at 4.5 μg/mL, was included with all furin containing reactions. The PCSK9 coated streptavidin plate was washed with buffer A and the antibody/proprotein convertase mixture was added to the plate and incubated at room temperature for one hour. After washing, bound antibody was detected by incubation with goat-α-human Fc-HRP (160 ng/mL, diluted in buffer A) (Jackson Laboratories, Bar Harbor, Me.) followed by TMB substrate. The reaction was stopped with 1 N HCl and the absorbance was read at a wavelength of 450 nm on a Spectramax Plus 384 spectrophotometer (Molecular Devices Inc., Sunnyvale, Calif.).
(§2) This assay relied on the ability of proprotein convertase in solution to compete for the binding of 11F1 to plate-captured PCSK9. […] All results were expressed as the mean OD450 value±standard deviation versus concentration of the proprotein convertase. […] Therefore, at the protein concentrations studied, 11F1 binds only to PCSK9 and not to the other proprotein convertase family members tested.

[3] = target: T2, PCSK2 (Homo sapiens, UniProt P16519); assay: 11F1 binding specificity competition assay; settings: 0.4 μg/mL 11F1, 0 to 20 μg/mL competitor
T2 construct: purchased R&D Systems
T2 sequence (P16519 110-638): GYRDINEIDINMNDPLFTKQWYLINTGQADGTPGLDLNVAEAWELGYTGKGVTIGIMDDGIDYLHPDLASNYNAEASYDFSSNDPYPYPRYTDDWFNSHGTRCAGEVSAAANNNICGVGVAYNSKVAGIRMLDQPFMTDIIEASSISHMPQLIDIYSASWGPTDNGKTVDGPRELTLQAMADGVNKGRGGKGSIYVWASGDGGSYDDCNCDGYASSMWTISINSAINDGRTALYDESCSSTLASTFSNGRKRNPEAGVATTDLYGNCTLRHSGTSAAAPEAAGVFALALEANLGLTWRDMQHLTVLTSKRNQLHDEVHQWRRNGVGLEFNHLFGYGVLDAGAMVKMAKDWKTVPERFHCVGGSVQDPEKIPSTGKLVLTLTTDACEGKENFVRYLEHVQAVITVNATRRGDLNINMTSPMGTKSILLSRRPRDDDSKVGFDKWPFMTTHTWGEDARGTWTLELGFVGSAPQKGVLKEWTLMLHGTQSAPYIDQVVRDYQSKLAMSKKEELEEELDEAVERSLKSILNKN
Experimental: as §1, §2

[4] = target: T3, furin (Homo sapiens, UniProt P09958); assay: 11F1 binding specificity competition assay; settings: 0.4 μg/mL 11F1, 0 to 20 μg/mL competitor, furin inhibitor 4.5 μg/mL
T3 construct: purchased R&D Systems
Experimental: as §1, §2

T3 sequence (P09958 108-794, species assumed): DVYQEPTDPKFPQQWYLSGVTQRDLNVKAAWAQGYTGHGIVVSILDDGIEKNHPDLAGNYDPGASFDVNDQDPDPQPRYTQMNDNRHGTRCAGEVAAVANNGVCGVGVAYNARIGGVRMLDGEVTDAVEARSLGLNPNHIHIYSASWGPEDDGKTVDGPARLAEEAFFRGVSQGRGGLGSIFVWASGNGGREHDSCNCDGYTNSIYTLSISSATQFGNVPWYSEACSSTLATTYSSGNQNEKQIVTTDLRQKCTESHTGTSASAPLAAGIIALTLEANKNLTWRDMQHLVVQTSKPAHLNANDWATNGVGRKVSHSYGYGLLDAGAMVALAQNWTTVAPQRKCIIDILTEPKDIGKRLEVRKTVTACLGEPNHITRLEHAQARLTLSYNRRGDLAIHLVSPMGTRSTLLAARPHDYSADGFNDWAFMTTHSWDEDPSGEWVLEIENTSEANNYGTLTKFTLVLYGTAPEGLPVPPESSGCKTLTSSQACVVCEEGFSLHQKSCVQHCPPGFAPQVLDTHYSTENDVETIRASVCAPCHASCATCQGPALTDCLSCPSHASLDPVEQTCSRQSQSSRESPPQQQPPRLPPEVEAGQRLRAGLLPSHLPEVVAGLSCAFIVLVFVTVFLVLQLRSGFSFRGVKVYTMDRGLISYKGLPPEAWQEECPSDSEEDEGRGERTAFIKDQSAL

11F1: anti-PCSK9 ABP, light/heavy variable region SEQ ID NO 465/463 [Antibody 11F1]
Viscosity @ 25 C. ([1]; 145 mg/mL, 9% Sucrose 0.01% PS 20, pH 5.2): 14 cP | Viscosity @ 25 C. ([1]; 147 mg/mL, 150 mM Methionine, 3% Sucrose, 0.01% PS 20, pH 5.2): 13 cP | Viscosity @ 25 C. ([1]; 170 mg/mL, 250 mM Praline, 0.01% PS 20, pH 5.0): 18 cP | Viscosity @ 25 C. ([1]; 172 mg/mL, 9% Sucrose 0.01% PS 20, pH 5.2): 23 cP | Viscosity @ 25 C. ([1]; 186 mg/mL, 9% Sucrose 0.01% PS 20, pH 5.2): 45 cP | Viscosity @ 25 C. ([1]; 191 mg/mL, 9% Sucrose 0.01% PS 20, pH 5.2): 53 cP | Viscosity @ 25 C. ([1]; 192 mg/mL, 150 mM Methionine, 3% Sucrose, 0.01% PS 20, pH 5.2): 31 cP | Viscosity @ 25 C. ([1]; 196 mg/mL, 250 mM Praline, 0.01% PS 20, pH 5.0): 36 cP | Viscosity @ 25 C. ([1]; 211 mg/mL, 9% Sucrose, 100 mM Arginine, pH 5.2): 26 cP | Viscosity @ 25 C. ([1]; 211 mg/mL, 9% Sucrose, 150 mM Alanine, pH 5.2): 43 cP | Viscosity @ 25 C. ([1]; 211 mg/mL, 9% Sucrose, 150 mM Glycine, pH 5.2): 45 cP | Viscosity @ 25 C. ([1]; 211 mg/mL, 9% Sucrose, 150 mM Serine, pH 5.2): 48 cP | Viscosity @ 25 C. ([1]; 211 mg/mL, 9% Sucrose, 150 mM sodium chloride, pH 5.2): 62 cP | Viscosity @ 25 C. ([1]; 211 mg/mL, 9% Sucrose, pH 5.2): 73 cP | Viscosity @ 25 C. ([1]; 211 mg/mL, pH 5.2): 58 cP | Viscosity @ 25 C. ([1]; 212 mg/mL, 150 mM Methionine, 3% Sucrose, 0.01% PS 20, pH 5.2): 54 cP | Viscosity @ 25 C. ([1]; 212 mg/mL, 250 mM Praline, 0.01% PS 20, pH 5.0): 47 cP | Viscosity @ 25 C. ([1]; 224 mg/mL, 9% Sucrose 0.01% PS 20, pH 5.2): 133 cP | Viscosity @ 25 C. ([1]; […], 150 mM Methionine, 3% Sucrose, 0.01% PS 20, pH 5.2): 18 cP | Viscosity @ 25 C. ([1]; […], 9% Sucrose 0.01% PS 20, pH 5.2): 8 cP | effect of pre-incubation with PCSK1 in solution on 11F1 binding to plate-captured PCSK9 [2]: did not significantly impact the binding | effect of pre-incubation with PCSK2 in solution on 11F1 binding to plate-captured PCSK9 [3]: did not significantly impact the binding | effect of pre-incubation with furin in solution on 11F1 binding to plate-captured PCSK9 [4]: did not significantly impact the binding
